Test results: US20230330253A1 (LANOVA MEDICINES, published 2023)

Experiments:
Experiment in all cases: cell-based or functional assay
[1] = target: human claudin 18.2 (CLDN18.2) (human)
[2] = target: human claudin 18.2 (CLDN18.2) (human); remark: listed apart in the source
[3] = target: human claudin 18.2 (CLDN18.2) (human); remark: listed apart in the source

B1: 100F4G12 chimeric antibody (antibody, V domains shown)
VH: EVQLQQSGPELVKPGASVKMSCKASGYTFTGFLMHWVKQKPGQGLEWIGYINPYNDGTKYSERFKGKATLTSDKSSSTAYMELSSLTSDDSAVYYCARLDYGNAMDYWGQGTSVTVSS
VL: DIVMTQSPSSLTVTAGEKVTMRCKSTQSLLNSGNQRNYLTWYQQKPGQSPKLLIYWASTRESGVPERFTGSGSGTDFTLTISSVQAEDLAVYYCQNAYYYPLTFGPGTKLERK
B1 was tested, and the “Fluorescence, pHAb internalization on MKN45-CLDN18.2 cells, 20 nM antibody, normalized by DAR” value (shortened to “Fluorescence … 20 nM antibody, normalized by DAR”) [1] was 17100 and the “Fluorescence, pHAb internalization on MKN45-CLDN18.2 cells, 100 nM antibody, normalized by DAR” value [1] was 33500.

B2: 120B7B2 chimeric antibody (antibody, V domains shown)
VH: EVQLQQSGPELVKPGASVKMSCKASGYTFTGYIIQWMKQKPGLGLEWIGFINPYNDGTKYNEQFKGKATLTSDKSSNAAYMELSSLTSEDSAVYYCARAYFGNSFAYWGQGTLVTVSA
VL: DIVMTQSPSSLTVTAGEKVTMSCKSSQSLLNSGNQKNYLTWYQQRPGQPPKLLMYWASTRESGVPDRFTGSGSGTDFTLTISSGQAEDLAIYFCQNGYYFPFTFGSGTKLETK
For B2, the “EC50, ADCC Reporter Bioassay (luciferase, Jurkat FcγRIIIa V158/NFAT effector cells)” value [2] was 5.81 pM.

B3: 72C1B6A3 chimeric antibody (antibody, V domains shown)
VH: QVQLQQSGGELVKPGASVKMSCKAFGYTFTTYPIEWMKQNHGKSLEWIGNFHPYNDDTKYNEKFKGKAKLTVEKSSSTVYLEVSRLTSDDSAVYYCARRAYGYPYAMDYWGQGTSVTVSS
VL: DIVMTQSPSSLTVTAGEKVTMSCKSSQSLLNSGNQKNYLTWYQQRPGQPPKLLIYRASSRESGVPVRFTGSGSGTDFTLTISSVQAEDLAVYYCQNDYIYPYTFGGGTKLEMN
B3 was tested, and the “EC50, ADCC Reporter Bioassay (luciferase, Jurkat FcγRIIIa V158/NFAT effector cells)” value [2] was 46.3 pM.

B4: 4F11E2 chimeric antibody (antibody, V domains shown)
VH: DVQLVESGGGLVQPGGSRKLSCAASGFTFSTFGMHWVRQAPEKGLEWVAYITSGNSPIYFTDTVKGRFTISRDNPKNTLFLQMTSLGSEDTAVYYCARSSYYGNSMDYWGQGTSVTVSS
VL: DIVMTQSPSSLTVTAGEKVTLTCRSSQSLLNSGNRKNYLTWYQQIPGQPPKLLIYWASTRESGVPDRFTGSGSGTYFTLTISSVQAEDLAVYYCQNAYSYPFTFGSGTKLEKK
B4 was tested, and the “EC50, ADCC Reporter Bioassay (luciferase, Jurkat FcγRIIIa V158/NFAT effector cells)” value [2] was 22.2 pM.

B5: 103F6D3 chimeric antibody (antibody, V domains shown)
VH: QVQLQQSGAELARPGASVKMSCKASGYTFPTYSIHWLKQGPGQGLEWIGYINPNTIYTNYNQKFKYKTTLTADKSSSTAYIQLSSLTSDDSAVYYCAREGYGRGNAMDYWGQGTSVTVSS
VL: DIVMTQSPSSQTVTAGEKVTLSCRSSQSLLNGGNQKNYLTWYQQKPGQPPKLLIYWASTRESGVPDRFTGSGSGTYFTFTISSVQAEDLAVYYCQNAYFYPFTFGAGTKLELK
For B5, the “EC50, ADCC Reporter Bioassay (luciferase, Jurkat FcγRIIIa V158/NFAT effector cells)” value [2] was 79.5 pM, the “Fluorescence … 20 nM antibody, normalized by DAR” value [1] was 23000 and the “Fluorescence, pHAb internalization on MKN45-CLDN18.2 cells, 100 nM antibody, normalized by DAR” value [1] was 41300.

B6: 85H12E8 chimeric antibody (antibody, V domains shown)
VH: QVQLKESGPGLVAPSQSLSITCTVSGFSLSNYGVSWVRQPPGKGLEWLGVIWAGGNTNYNSALMSRLRISKDNSKSQVFLKMNSLQTDDTARYYCARHGYGKGNAMDNWGQGTSVTVSS
VL: DIVMTQSPSSLTVTAGEKVTMNCKSSQSLLNSGNQRNYLSWYQQEPGQPPKLLIYWASTRESGVPDRFTGSGSGTDFTLTISNIQAEDLALYFCQNAYFYPFTFGSGTKLEIK
With B6 the “Fluorescence … 20 nM antibody, normalized by DAR” value [1] was 19700 and the “Fluorescence, pHAb internalization on MKN45-CLDN18.2 cells, 100 nM antibody, normalized by DAR” value [1] was 29100.

B7: 113E12F7 chimeric antibody (antibody, V domains shown)
VH: QVQLKESGPGLVAPSQSLSITCTVTGFSLSSYGVHWVRQPPGKGLEWLGVIWAGGSTNYDSALMSRLSISKDRSKSQVFLKMTSLQTDDTAMYYCARSLYGNSFDHWGQGTTLTVSS
VL: DIVMTQSPSSLTVTTGEKVTMSCKSSQSLFNSGNQKNYLTWYQQKPGQPPKLLIYWASTRESGVPDRFTGSGSGTYFTLTISSVQAEDLAVYYCQNNYIYPLAFGTGTKLELK
B7 was tested, and the “Fluorescence … 20 nM antibody, normalized by DAR” value [1] was 13200 and the “Fluorescence, pHAb internalization on MKN45-CLDN18.2 cells, 100 nM antibody, normalized by DAR” value [1] was 29900.

B8: 64G11B4 chimeric antibody (antibody, V domains shown)
VH: QVQLHQSGTELVRPGTSVKVSCKASGYAFTNYLLEWVKQRPGQGLEWIGEINPGNGGSNYNEKFKGKATLTADKSSSTAYMQLSSLTSVDSAVYFCARIYYGNSFAYWGQGTLVTVSA
VL: DIVMTQSPSSLTVTAGEKVTMNCKSSQSLLNSGNQRNYLTWYQQKPGQPPKLLIYWASTRESGVPDRFTGSGSGTDFTLTISSVQADDLAVYYCQNDYFYPFTFGAGTNLELK
For B8, the “EC50, ADCC Reporter Bioassay (luciferase, Jurkat FcγRIIIa V158/NFAT effector cells)” value [2] was 126 pM, the “Fluorescence … 20 nM antibody, normalized by DAR” value [1] was 24000 and the “Fluorescence, pHAb internalization on MKN45-CLDN18.2 cells, 100 nM antibody, normalized by DAR” value [1] was 33700.

B9: 103H2B4 chimeric antibody (antibody, V domains shown)
VH: QVQLQQPGAEPVKPGASVKLSCKASGYSFTNFLTHWVRQRPGQGLEWIGEINPTNGRTYYNEKFKRKATLTVDKSSTTVYMQLSNLTPEDSAVFYCARIYYGNSMDYWGQGTLVTVSA
VL: DILMTQSPSSLTVTAGEKVTMSCKSSQSLLNSGNQKNYLTWYQQKPGQSPKLLIYWASTRESGVPDRFTGSGSGTDFTLTISSVQAEDLAVYYCQNNYFYPLTFGVGTKLELK
With B9 the “Fluorescence … 20 nM antibody, normalized by DAR” value [1] was 23500 and the “Fluorescence, pHAb internalization on MKN45-CLDN18.2 cells, 100 nM antibody, normalized by DAR” value [1] was 35800.

B10: 111B12D11 chimeric antibody (antibody, V domains shown)
VH: QVQLKESGPGLVAPSQSLSITCTVSGFSLTSYGVHWVRQPPGKGLEWLGVIWAGGSTNYDSTLMSRLSISKDRSKSQVFLKMTSLQTDDTAMYYCARSLYGNSFDHWGQGTTLTVSS
VL: DIVMTQSPSSLTVTAGEKVTMRCRSSQSLFNSGNQRNYLTWYQQKPGQPPKLLIYWASTRESGVPDRFTGSGSGTDFTLTISSVQAEDLAVYYCQNNYIYPLAFGAGTKLELK
In the case of B10, the “Fluorescence … 20 nM antibody, normalized by DAR” value [1] is reported as 15900 and the “Fluorescence, pHAb internalization on MKN45-CLDN18.2 cells, 100 nM antibody, normalized by DAR” value [1] is reported as 37400.

B11: 111E7E2 chimeric antibody (antibody, V domains shown)
VH: QVQLKESGPGLVAPSQSLSITCTVSGFSLTSYGAHWVRQPPGKGLEWLGVIWAGGSTNYDSALMSRLSISKDRSKSQVFLKMTSLQTDDTAMYYCARSLYGNSFDHWGQGTTLTVSS
VL: DIVMTQSPSSLTVTAGEKVTMSCKSSQSLFNSGNQKNYLTWYQQKPGQPPKLLIYWASTRESGVPDRFTGSGSGTDFTLTISSVQAEDLAVYYCQNNYIYPLAFGAGTKLELK
In the case of B11, the “Fluorescence … 20 nM antibody, normalized by DAR” value [1] is reported as 12300 and the “Fluorescence, pHAb internalization on MKN45-CLDN18.2 cells, 100 nM antibody, normalized by DAR” value [1] is reported as 28000.

B12: 78E8G9G6 chimeric antibody (antibody, V domains shown)
VH: QVQLKESGPGLVAPSQSLSITCTVSGFSLISYGVHWVRQPPGKGLEWLGVIWAGGRTNYNSALMSRLSISKDNSKSQVFLKMNSLQTYDTAMYYCARDRYGGNSLDYWGQGTSVTVSS
VL: DIVMTQSPSSLTVTAGEKVTMNCRSIQSLLNSGNQKNYLSWYQQKPGQPPKLLIYWASTRESGVPDRFTGSGSGTDFTLTIRSVLDEDLAVYYCQNSYSYPFTFGSGTKLEMK
B12 was tested, and the “EC50, ADCC Reporter Bioassay (luciferase, Jurkat FcγRIIIa V158/NFAT effector cells)” value [2] was 15.9 pM, the “Fluorescence … 20 nM antibody, normalized by DAR” value [1] was 26800 and the “Fluorescence, pHAb internalization on MKN45-CLDN18.2 cells, 100 nM antibody, normalized by DAR” value [1] was 41100.

B13: 4F11E2 HC N55Q-LC S32A (humanized, PTM de-risked, No. 2) (antibody, V domains shown)
VH: EVQLVESGGGLVQPGGSLRLSCAASGFTFSTFGMHWVRQAPGKGLEWVSYITSGQSPIYFTDTVKGRFTISRDNAKNSLYLQMNSLRAEDTAVYYCARSSYYGNSMDYWGQGTLVTVSS
VL: DIVMTQSPDSLAVSLGERATINCRSSQSLLNAGNRKNYLTWYQQKPGQPPKLLIYWASTRESGVPDRFSGSGSGTDFTLTISSLQAEDVAVYYCQNAYSYPFTFGGGTKLEIK
In the case of B13, the “EC50, ADCC Reporter Bioassay (luciferase)” value (from here on “EC50 … (luciferase)”) [3] is reported as 414 pM.

B14: 4F11E2 HC N55Q-LC N31E (humanized, PTM de-risked, No. 1) (antibody, V domains shown)
VH: EVQLVESGGGLVQPGGSLRLSCAASGFTFSTFGMHWVRQAPGKGLEWVSYITSGQSPIYFTDTVKGRFTISRDNAKNSLYLQMNSLRAEDTAVYYCARSSYYGNSMDYWGQGTLVTVSS
VL: DIVMTQSPDSLAVSLGERATINCRSSQSLLESGNRKNYLTWYQQKPGQPPKLLIYWASTRESGVPDRFSGSGSGTDFTLTISSLQAEDVAVYYCQNAYSYPFTFGGGTKLEIK
For B14, the “EC50 … (luciferase)” value [3] was 238 pM.

B15: 120B7B2 HC G57D&S104A-LC-N96E&N31E (humanized, PTM de-risked, No. 6) (antibody, V domains shown)
VH: QVQLVQSGAEVKKPGASVKVSCKASGYTFTGYIIQWVRQAPGQRLEWMGFINPYNDDTKYNEQFKGRVTITRDTSASTAYMELSSLRSEDTAVYYCARAYFGNAFAYWGQGTLVTVSS
VL: DIVMTQSPDSLAVSLGERATINCKSSQSLLESGNQKNYLTWYQQKPGQPPKLLIYWASTRESGVPDRFSGSGSGTDFTLTISSLQAEDVAVYYCQEGYYFPFTFGGGTKLEIK
For B15, the “EC50 … (luciferase)” value [3] was 493 pM.

B16: 72C1B6A3 HC WT-LC N31E (humanized, PTM de-risked, No. 4) (antibody, V domains shown)
VH: QVQLVQSGAEVKKPGASVKVSCKASGYTFTTYPIEWVRQAPGQRLEWMGNFHPYNDDTKYNEKFKGRVTITRDTSASTAYMELSSLRSEDTAVYYCARRAYGYPYAMDYWGQGTLVTVSS
VL: DIVMTQSPDSLAVSLGERATINCKSSQSLLESGNQKNYLTWYQQKPGQPPKLLIYRASSRESGVPDRFSGSGSGTDFTLTISSLQAEDVAVYYCQNDYIYPYTFGGGTKLEIK
B16 was tested, and the “EC50 … (luciferase)” value [3] was 1650 pM.

B17: 12F1F4 chimeric antibody (antibody, V domains shown)
VH: QVQLKESGPGLVAPSQSLSITCTVSGFSLINYGVSWVRQPPGKGLEWLGVIWGDGNTNYQSALRSRLSIRKDTSKSQVFLKLNSVHTDGTATYYCAKVGRGNAMDHWGQGISVIVSS
VL: DIVMTQSPSSLTVTARERVSMTCKSSQSLFNSGNQRNYLTWYQQKPGQPPKLLIYWSSTRESGVPDRFTGSGSGTDFTLTISSVQAEDLAIYFCQNNYYYPFTFGSGTKLEIK
For B17, the “EC50, ADCC Reporter Bioassay (luciferase, Jurkat FcγRIIIa V158/NFAT effector cells)” value [2] was 36.8 pM, the “Fluorescence … 20 nM antibody, normalized by DAR” value [1] was 29500 and the “Fluorescence, pHAb internalization on MKN45-CLDN18.2 cells, 100 nM antibody, normalized by DAR” value [1] was 43900.
